Experimental data published in the Human Domainome abundance scans (Beltran et al. 2025).

B1: Nucleosome-remodeling factor subunit BPTF, residues 2862 to 2918; numbered along this chain, Q12830 (parent)
chain: TKKDTKLYCICKTPYDESKFYIGCDRCQNWYHGRCVGILQSEAELIDEYVCPQCQST
B2: Cold shock protein CspB, residues 1 to 66; numbered along this chain, P41016 (parent)
chain: MQRGKVKWFNNEKGYGFIEVEGGSDVFVHFTAIQGEGFKTLEEGQEVSFEIVQGNRGPQAANVVKL

Variants of: B1
Experiment: abundance fitness (aPCA) (normalised: wild type 0, dead -1); higher = more abundant; growth selection in yeast, the domain comes from the species named
Conditions: Homo sapiens

Abundance fitness of substitutions, site by site:
D4: G -0.163, M -0.088, N -0.087, V -0.215, H -0.195, S -0.008, A -0.18, T -0.124, F -0.226, K -0.005, I -0.179, R -0.446, C -0.316, L -0.238, E -0.005, P -0.112, Y -0.154
C9: Q -0.846, D -0.827, P -0.716, E -0.971, F -0.916, G -0.801, N -0.932, V -0.986, I -1.05, L -0.815, R -0.879, T -0.851, A -0.877, K -0.706, H -0.838
C11: E -0.638, F -1.12, G -0.771, A -0.934, D -0.759
L7: D 0.023, R -0.18, K -0.219, A -0.014, S -0.046, W -0.13, N 0.037, T -0.012, H 0.018, Y -0.022, C -0.058, G -0.005, I -0.179, F -0.089, P -0.071, V -0.076
Y8: R -0.105, S -0.014, K 0.065, G 0.051, Q 0.054, C -0.028, F -0.037, P -0.298, V -0.081, W -0.164, A 0.065, E 0.166, I -0.166, L -0.043, D 0.072, T -0.041, M 0.015
T1: V -0.177, H -0.277, D -0.071, R -0.281, E -0.185, N 0.018, W -0.152, I -0.132, K -0.199, L -0.256, M -0.13, A -0.54, P -0.264, S -0.104, G -0.147
T5: S -0.071, N 0.016, K 0.05, V -0.282, Q -0.052, C 0.002, H -0.055, A -0.213, I -0.017, G -0.155, D 0.028, Y -0.016, L -0.092, W -0.238, F -0.076, M 0.024, E 0.064
K6: S -0.035, H -0.057, F -0.278, I -0.08, V -0.161, G -0.071, A 0.069, R -0.086, N -0.045, L -0.085, P 0.034, T 0.008, C -0.161, E -0.042, Q -0.032, M -0.013, D -0.062
K3: A -0.146, N -0.379, C -0.697, H -0.424, E 0.014, V -0.009, D -0.097, M -0.152, G -0.148, R -0.131, I -0.057, T 0.013, W -0.629, L -0.111, Q -0.032, F -0.041, Y -0.273, S 0.036
I10: C -0.245, Y -0.234, G -0.387, N -0.446, W -0.398, M -0.252, E -0.129, V -0.218, P -0.395, S -0.387, D -0.278, R -0.368, Q -0.472, K -0.218, F -0.307, T -0.249, H -0.084

Variants of: B2
Experiment: as above
Conditions: Bacillus caldolyticus

Abundance fitness: each site, then its substitutions
E36: G -0.004
V26: P -0.566, I -0.017, H -0.132, Q -0.173, R -0.248, Y -0.074
K13: C -0.071
Q2: M 0.051, C 0.027
E46: T -0.053, F -0.025
G54: T 0.01
